This note sets out measurements from patent US6403325B1, “Methods and compounds for treating alzheimer's disease” (priority 1997, dated 2002).

Assay [1] concerns C57MG mammary epithelial cell line. The assay can be described thus: Aβ levels in C57MG cells infected with Wnt retrovirus. It counts as cell-based, mouse. Particulars: C57MG cells infected with retrovirus expressing the Wnt protein.
The subject of assay [2] is PC12 cells. The assay can be described thus: Aβ levels by ELISA in Wnt1-expressing PC12 lines. It counts as cell-based. The note with it: 12 independent Wnt1-expressing PC12 lines. From the text:
(§1) A retrovirus encoding the Wnt1 protein was introduced into PC12 cells as described in Mol. Cell. Biol. 14:466, (1995), and twelve independent Wnt1-expressing lines were established. Wnt1 expression in the lines was examined by measuring β-catenin levels.

Assay [3] deals with PC12 cells. The assay can be described thus: β-catenin levels in Wnt1-expressing PC12 lines. It counts as cell-based. Particulars: 12 independent Wnt1-expressing PC12 lines.
Excerpt: as §1

B1: Wnt5a: Wnt family member expressed in C57MG cells from a Wnt5a retrovirus (protein, UniProt P22725 62-380, looked up)
Protein Wnt-5a: IIGAQPLCSQLAGLSQGQKKLCHLYQDHMQYIGEGAKTGIKECQYQFRHRRWNCSTVDNTSVFGRVMQIGSRETAFTYAVSAAGVVNAMSRACREGELSTCGCSRAARPKDLPRDWLWGGCGDNIDYGYRFAKEFVDARERERIHAKGSYESARILMNLHNNEAGRRTVYNLADVACKCHGVSGSCSLKTCWLQLADFRKVGDALKEKYDSAAAMRLNSRGKLVQVNSRFNSPTTQDLVYIDPSPDYCVRNESTGSLGTQGRLCNKTSEGMDGCELMCCGRGYDQFKTVQTERCHCKFHWCCYVKCKKCTEIVDQFVCK
On to B1, for which the Aβ levels result in assay [1] is “did not show increased Aβ levels”.

B2: Wnt1: Wnt1 protein, member of the Wnt family, expressed in cells from a retrovirus encoding it (protein, UniProt P04426 28-370, looked up)
Proto-oncogene Wnt-1: ANSSGRWWGIVNIASSTNLLTDSKSLQLVLEPSLQLLSRKQRRLIRQNPGILHSVSGGLQSAVRECKWQFRNRRWNCPTAPGPHLFGKIVNRGCRETAFIFAITSAGVTHSVARSCSEGSIESCTCDYRRRGPGGPDWHWGGCSDNIDFGRLFGREFVDSGEKGRDLRFLMNLHNNEAGRTTVFSEMRQECKCHGMSGSCTVRTCWMRLPTLRAVGDVLRDRFDGASRVLYGNRGSNRASRAELLRLEPEDPAHKPPSPHDLVYFEKSPNFCTYSGRLGTAGTAGRACNSSSPALDGCELLCCGRGHRTRTQRVTERCNCTFHWCCHVSCRNCTHTRVLHECL
B2: the “levels of Aβ peptide in the cell lines” value in the assay on PC12 cells [2] (ELISA) is “positively correlated with Wnt1 expression”. The “Aβ levels in the culture media” value in the assay on PC12 cells [2] (culture media) is “positive correlation with Wnt1 expression”. Besides, the β catenin stabilization entry in the assay on PC12 cells [3] is on record as “positively correlated with the degree of β catenin stabilization”. Further, the Aβ levels result in assay [1] is on record as “increase in Aβ levels”.
